Experimental data: patent US20160347862A1 (Janssen / Centocor, published 2016)

Columns and labels:
human thrombin [1] = biological target: T1, human thrombin (human, UniProt P00734 314-363; P00734 364-622); assay: cell-based or functional assay
prothrombin = prothrombin (Homo sapiens (Human), UniProt P00734 44-622); assay: pull-down with IgA-binding lectin agarose; supernatant on non-reducing SDS-PAGE
human thrombin [2] = biological target: T1, human thrombin; assay: estimated from the rate of S2238 hydrolysis by thrombin
human thrombin [3] = biological target: T1, human thrombin; assay: cell-based or functional assay; remark: listed apart in the source
human thrombin [4] = biological target: T1, human thrombin; assay: ELISA binding to thrombin, four-parameter fit (log(agonist) vs. response -- Variable slope)
human thrombin [5] = biological target: T1, human thrombin; assay: Biacore, antibody as ligand, after storage for one month at 4° C.
human thrombin [6] = biological target: T1, human thrombin; assay: Biacore, antibody as ligand, after exposure to light
human thrombin [7] = biological target: T1, human thrombin; assay: Biacore, antibody as ligand, ambient condition; Control (ambient condition), not 4° C. storage or light exposure

Row | Binder | thrombin hydrolysis of FVIII (feedback activation of thrombin via Xase complex) (human thrombin [1]) [fold] | thrombin hydrolysis of platelet receptor PAR-1 peptide (activation of platelets) (human thrombin [1]) [fold] | binding result (prothrombin) | Kd (human thrombin [2]) [nM] | EC50 (read off the curve), Vi/V0 of S2238 cleavage by thrombin (human thrombin [3]) [nM] | EC50 (human thrombin [4]) [µg/mL] | Kd (human thrombin [5]) [nM] | Kd (human thrombin [6]) [nM] | Kd (human thrombin [7]) [nM]
1 | wild-type anti-exosite 1 IgA antibody (antibody, V domains shown, also called anti-thrombin IgA; anti-IIa IgA) VH: QVQLIQSGSAVKKPGASVRVSCKVSGYTLTEAAIHWVRQAPGKGLEWMGGLDPQDGETVYAQQFKGRVTMTEDRSTDTAYMEVNNLRSEDTATYYCTTGDFSEFEPFSMDYFHFWGQGTVVTVAS VL: EIVLTQSPATLSLSPGERATLSCRASQNVSSFLAWYQHKPGQAPRLLIYDASSRATDIPIRFSGSGSGTDFTLTISGLEPEDFAVYYCQQRRSWPPLTFGGGTKVEIKR | 7 | 15 | no binding | ~12 | ~10 |  |  |  | 
2 | synthetic anti-exosite 1 IgG S30A variant antibody (antibody, V domains shown, also called ichorcumab S30A; ichorcumab) VH: QVQLIQSGSAVKKPGASVRVSCKVSGYTLTEAAIHWVRQAPGKGLEWMGGLDPQDGETVYAQQFKGRVTMTEDRSTDTAYMEVNNLRSEDTATYYCTTGDFSEFEPFSMDYFHFWGQGTVVTVAS VL: EIVLTQSPATLSLSPGERATLSCRASQNVASFLAWYQHKPGQAPRLLIYDASSRATDIPIRFSGSGSGTDFTLTISGLEPEDFAVYYCQQRRSWPPLTFGGGTKVEIKR |  |  |  |  |  | 0.0126 | 1.74 | 1.8 | 1.77
